This note sets out measurements from article PMC4935880, “COG lobe B sub-complex engages v-SNARE GS15 and functions via regulated interaction with lobe A sub-complex” (Scientific Reports, 2016).

The target in test [1] is GFP-hGS15 (human) (UniProt Q9NYM9). The test can be described thus: co-IP; GFP IP on GBP (GFP binding protein) beads from lysates of transfected HEK293T cells (50 mM Tris pH 7.4, 150 mM NaCl, 1% Triton X-100), 2 h at room temperature; blotted for COG8, Myc and GFP.
Test [2] has the same target. The test is described as follows: co-IP; HEK293T cells with lobe B-myc and a GFP-tagged partner fractionated into P15, P100 and S100; membrane pellets solubilised with Triton X-100 and incubated with GBP-beads; blotted with anti-Myc and anti-GFP.
The target of test [3] is T1, lobe B complex isolated from HEK cells (GFP-hCOG5 + hCOG6/8-3Myc + hCOG7-3Myc) (human, UniProt Q9UP83 1-860; Q9Y2V7 1-657; P83436 1-770; Q96MW5 1-612).
T1 construct: Human COG5 in pEGFP-C1; Human COG6-3Myc in MultiLabel vector; Human COG7 in pCMV-3Myc; Human COG8-3Myc in MultiLabel vector; Elution from TALON by imidazole probably releases His6-GBP together with the GFP-tagged complex; also called lobe B sub-complex; purified lobe B; source: HEK293T, transfected; isolated by Sephacryl S-300 HR gel filtration and TALON-GBP beads, eluted with 350 mM imidazole, …
The test can be described thus: pull-down; GST-tagged GS15 proteins held on Glutathione Sepharose 4B; whole COG complex or lobe B isolated from HEK cells added in 25 mM HEPES-KOH pH 7.4, 25 mM KCl, 2.5 mM magnesium acetate, 1 mM DTT, 0.05% Tween-20, 1 hour at room temperature; Myc blot. Conditions: both partners purified.

For test [4], the target named is T2, whole COG complex isolated from HEK cells (GFP-mCOG3 + hCOG1/2/4-3Myc + hCOG6/8-3Myc + hCOG5/7-3Myc) (human | mouse, UniProt Q8WTW3 1-980; Q14746 1-738; Q8CI04 1-820; Q9H9E3 1-785; Q9UP83 1-860; Q9Y2V7 …).
T2 construct: Human COG1-3Myc in MultiLabel vector; Human COG2Streptag-3Myc in MultiLabel vector; Mouse COG3 in pEGFP-C1; Human COG4-3Myc in MultiLabel vector; Human COG5-3Myc in MultiLabel vector; Human COG6-3Myc in MultiLabel vector; Human COG7-3Myc in MultiLabel vector; Human COG8-3Myc in MultiLabel vector; Elution from TALON by imidazole probably releases His6-GBP together with the GFP-tagged complex; also …
The test is described as above. Conditions: both partners purified.

T1 sequence (Q9UP83 whole entry, chain 1 of 4): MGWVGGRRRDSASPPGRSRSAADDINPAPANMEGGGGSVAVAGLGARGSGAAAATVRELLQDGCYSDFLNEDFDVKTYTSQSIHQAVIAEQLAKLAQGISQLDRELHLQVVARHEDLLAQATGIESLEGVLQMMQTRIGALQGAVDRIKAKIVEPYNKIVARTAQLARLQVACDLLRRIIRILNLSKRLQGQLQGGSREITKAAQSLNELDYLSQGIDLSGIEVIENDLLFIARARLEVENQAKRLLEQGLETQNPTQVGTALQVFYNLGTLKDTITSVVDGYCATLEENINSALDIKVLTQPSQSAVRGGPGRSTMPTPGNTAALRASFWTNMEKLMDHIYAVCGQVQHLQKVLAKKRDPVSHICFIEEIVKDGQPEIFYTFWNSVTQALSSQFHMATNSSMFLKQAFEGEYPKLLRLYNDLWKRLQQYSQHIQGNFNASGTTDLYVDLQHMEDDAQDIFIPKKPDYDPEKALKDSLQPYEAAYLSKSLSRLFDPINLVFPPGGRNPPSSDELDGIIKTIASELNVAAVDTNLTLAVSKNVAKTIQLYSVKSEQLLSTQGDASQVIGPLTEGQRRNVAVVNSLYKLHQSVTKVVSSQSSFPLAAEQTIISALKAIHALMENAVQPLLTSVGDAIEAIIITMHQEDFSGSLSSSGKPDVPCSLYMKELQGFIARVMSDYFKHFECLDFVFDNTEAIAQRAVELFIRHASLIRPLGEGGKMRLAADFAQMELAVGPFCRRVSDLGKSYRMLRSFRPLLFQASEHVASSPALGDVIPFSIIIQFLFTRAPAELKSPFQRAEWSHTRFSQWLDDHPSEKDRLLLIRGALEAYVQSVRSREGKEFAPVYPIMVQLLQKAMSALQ
T1 sequence (Q9Y2V7 whole entry, chain 2 of 4): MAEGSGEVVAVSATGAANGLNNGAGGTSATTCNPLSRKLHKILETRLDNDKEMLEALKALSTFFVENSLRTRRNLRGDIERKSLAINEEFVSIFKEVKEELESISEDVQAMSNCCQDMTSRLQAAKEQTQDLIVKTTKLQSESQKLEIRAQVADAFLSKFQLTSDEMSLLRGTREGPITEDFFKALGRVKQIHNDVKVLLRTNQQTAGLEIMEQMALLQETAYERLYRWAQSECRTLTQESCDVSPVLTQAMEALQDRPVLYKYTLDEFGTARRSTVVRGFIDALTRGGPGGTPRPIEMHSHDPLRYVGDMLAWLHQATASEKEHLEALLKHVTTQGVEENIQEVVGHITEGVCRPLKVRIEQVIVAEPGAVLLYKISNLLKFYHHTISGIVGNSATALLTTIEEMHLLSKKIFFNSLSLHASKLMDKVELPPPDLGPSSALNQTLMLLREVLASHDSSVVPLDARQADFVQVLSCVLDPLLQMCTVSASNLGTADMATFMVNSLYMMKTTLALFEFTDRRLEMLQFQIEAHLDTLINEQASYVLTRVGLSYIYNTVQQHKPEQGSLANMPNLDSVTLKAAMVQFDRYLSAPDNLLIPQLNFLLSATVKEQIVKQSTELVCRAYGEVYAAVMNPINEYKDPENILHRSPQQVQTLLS
T1 sequence (P83436 whole entry, chain 3 of 4): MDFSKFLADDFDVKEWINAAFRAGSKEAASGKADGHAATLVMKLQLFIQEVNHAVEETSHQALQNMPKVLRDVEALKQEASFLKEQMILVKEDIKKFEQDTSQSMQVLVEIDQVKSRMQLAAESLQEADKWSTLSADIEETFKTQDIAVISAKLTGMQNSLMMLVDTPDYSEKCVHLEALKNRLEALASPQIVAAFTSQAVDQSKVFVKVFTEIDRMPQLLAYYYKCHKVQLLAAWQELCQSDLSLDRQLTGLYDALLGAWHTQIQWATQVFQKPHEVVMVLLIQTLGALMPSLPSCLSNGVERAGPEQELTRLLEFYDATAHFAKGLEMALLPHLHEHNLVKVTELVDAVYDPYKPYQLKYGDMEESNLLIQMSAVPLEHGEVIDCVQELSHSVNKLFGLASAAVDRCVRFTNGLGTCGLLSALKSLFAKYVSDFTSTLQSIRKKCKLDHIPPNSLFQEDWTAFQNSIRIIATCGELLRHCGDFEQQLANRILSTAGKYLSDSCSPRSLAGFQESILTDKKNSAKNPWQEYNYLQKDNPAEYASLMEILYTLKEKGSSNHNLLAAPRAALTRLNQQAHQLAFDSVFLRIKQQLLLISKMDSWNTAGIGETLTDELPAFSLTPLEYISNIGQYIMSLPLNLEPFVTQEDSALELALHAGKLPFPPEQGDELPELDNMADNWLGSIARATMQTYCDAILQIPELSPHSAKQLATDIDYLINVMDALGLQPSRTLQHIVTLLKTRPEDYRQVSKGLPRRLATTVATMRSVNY
T1 sequence (Q96MW5 whole entry, chain 4 of 4): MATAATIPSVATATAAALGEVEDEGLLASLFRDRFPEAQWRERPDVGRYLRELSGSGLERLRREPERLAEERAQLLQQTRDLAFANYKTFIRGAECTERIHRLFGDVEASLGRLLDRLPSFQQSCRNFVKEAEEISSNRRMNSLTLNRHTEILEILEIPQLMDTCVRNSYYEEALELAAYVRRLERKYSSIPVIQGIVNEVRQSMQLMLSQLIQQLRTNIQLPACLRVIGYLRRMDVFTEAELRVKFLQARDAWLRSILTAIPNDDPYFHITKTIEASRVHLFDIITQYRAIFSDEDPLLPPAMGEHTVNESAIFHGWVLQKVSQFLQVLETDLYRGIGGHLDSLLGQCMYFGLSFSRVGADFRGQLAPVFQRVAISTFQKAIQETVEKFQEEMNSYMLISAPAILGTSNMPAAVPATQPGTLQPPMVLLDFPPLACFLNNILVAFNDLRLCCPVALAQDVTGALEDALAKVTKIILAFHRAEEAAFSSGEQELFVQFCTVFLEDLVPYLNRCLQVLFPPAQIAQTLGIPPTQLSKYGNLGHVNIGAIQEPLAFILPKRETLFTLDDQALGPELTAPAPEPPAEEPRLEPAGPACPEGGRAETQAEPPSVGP

Consider “COG1-HA-GS-COG8 hybrid (hCOG1-HA-GS-TEV-hCOG8-3Myc)”, for which the co-IP efficiency (percent of input) in the test with GFP-hGS15 (human) [1] was found to be 0.3%.

In the test with GFP-hGS15 (human) [2], “lobe B sub-complex, myc-tagged (hCOG5-3Myc, hCOG6-3Myc, hCOG7-3Myc, hCOG8-3Myc), Q9UP83 1-860; Q9Y2V7 1-657; P83436 1-770; Q96MW5 1-612” had a percent pull-down of less than 12%.

B1: His-hGS15-GST, full-length (FL) GS15 cytoplasmic domain (aa 1–86) (domain or fragment, human, UniProt Q9NYM9 1-86, looked up)
chain: MADWARAQSPGAVEEILDRENKRMADSLASKVTRLKSLALDIDRDAEDQNRYLDGMDSDFTSMTSLLTGSVKRFSTMARSGQDNRK
notes: Human GS15 cytoplasmic domain (aa 1–86) in pET28a; also called GST-tagged full-length (FL) GS15 cytoplasmic domain; not shown: GST, C-terminal, kept
For the molecule B1, the binding result in test [3] and in test [4] was “binds” throughout.
